In patent US20230002480A1:

What was measured:
Assay in all cases: cell-based or functional assay
[1] = biological target: HIV-1 Env of pseudovirus 1006_11_C3_1601 (HIV-1)
[2] = biological target: HIV-1 Env of pseudovirus 1012_11_TC21_3257 (HIV-1)
[3] = biological target: HIV-1 Env of pseudovirus 1056_10_TA11_1826 (HIV-1)
[4] = biological target: HIV-1 Env of pseudovirus 191084 B7-19 (HIV-1)
[5] = biological target: HIV-1 Env of pseudovirus 211-9 (HIV-1)
[6] = biological target: HIV-1 Env of pseudovirus 235-47 (HIV-1)
[7] = biological target: HIV-1 Env of pseudovirus 249M B10 (HIV-1)
[8] = biological target: HIV-1 Env of pseudovirus 263-8 (HIV-1)
[9] = biological target: HIV-1 Env of pseudovirus 3103.v3.c10 (HIV-1)
[10] = biological target: HIV-1 Env of pseudovirus 3301.v1.c24 (HIV-1)
[11] = biological target: HIV-1 Env of pseudovirus 3365.v2.c2 (HIV-1)
[12] = biological target: HIV-1 Env of pseudovirus 3817.v2.c59 (HIV-1)
[13] = biological target: HIV-1 Env of pseudovirus 6041.v3.c23 (HIV-1)
[14] = biological target: HIV-1 Env of pseudovirus 620345.c01 (HIV-1)
[15] = biological target: HIV-1 Env of pseudovirus 6811.v7.c18 (HIV-1)
[16] = biological target: HIV-1 Env of pseudovirus 9004SS_A3_4 (HIV-1)
[17] = biological target: HIV-1 Env of pseudovirus 928-28 (HIV-1)
[18] = biological target: HIV-1 Env of pseudovirus BJOX009000.02.4 (HIV-1)
[19] = biological target: HIV-1 Env of pseudovirus C2101.c01 (HIV-1)
[20] = biological target: HIV-1 Env of pseudovirus CNE19 (HIV-1)
[21] = biological target: HIV-1 Env of pseudovirus CNE53 (HIV-1)
[22] = biological target: HIV-1 Env of pseudovirus Ce1086_B2 (HIV-1)
[23] = biological target: HIV-1 Env of pseudovirus HIV-0013095-2.11 (HIV-1)
[24] = biological target: HIV-1 Env of pseudovirus HIV-16055-2.3 (HIV-1)
[25] = biological target: HIV-1 Env of pseudovirus PVO.4 (HIV-1)
[26] = biological target: HIV-1 Env of pseudovirus Q23.17 (HIV-1)
[27] = biological target: HIV-1 Env of pseudovirus QH0692.42 (HIV-1)
[28] = biological target: HIV-1 Env of pseudovirus R1166.c01 (HIV-1)
[29] = biological target: HIV-1 Env of pseudovirus SC05_8C11_2344 (HIV-1)
[30] = biological target: HIV-1 Env of pseudovirus T250-4 (HIV-1)
[31] = biological target: HIV-1 Env of pseudovirus T278-50 (HIV-1)
[32] = biological target: HIV-1 Env of pseudovirus TRJO4551.58 (HIV-1)
[33] = biological target: HIV-1 Env of pseudovirus ZM135M.PL10a (HIV-1)
[34] = biological target: HIV-1 Env of pseudovirus ZM197M.PB7 (HIV-1)
[35] = biological target: HIV-1 Env of pseudovirus ZM233M.PB6 (HIV-1)
[36] = biological target: HIV-1 Env of pseudovirus ZM53M.PB12 (HIV-1)

## 8ANC195 (antibody)
[1]
  neutralization IC50: 0.43 µg/mL
  neutralization IC80: 1.98 µg/mL
[2]
  neutralization IC50: > 50 µg/mL
  neutralization IC80: > 50 µg/mL
[3]
  neutralization IC50: > 50 µg/mL
  neutralization IC80: > 50 µg/mL
[4]
  neutralization IC50: > 50 µg/mL
  neutralization IC80: > 50 µg/mL
[5]
  IC50, titer in TZM.bl cells: 1.34 µg/mL
  IC80, titer in TZM.bl cells: 8.43 µg/mL
[6]
  IC50, titer in TZM.bl cells: > 50 µg/mL
  IC80, titer in TZM.bl cells: > 50 µg/mL
[7]
  neutralization IC50: > 50 µg/mL
  neutralization IC80: > 50 µg/mL
[8]
  neutralization IC50: > 50 µg/mL
  neutralization IC80: > 50 µg/mL
[9]
  IC50, titer in TZM.bl cells: 48.1 µg/mL
  IC80, titer in TZM.bl cells: > 50 µg/mL
[10]
  IC50, titer in TZM.bl cells: > 50 µg/mL
  IC80, titer in TZM.bl cells: > 50 µg/mL
[11]
  neutralization IC50: > 30 µg/mL
  neutralization IC80: > 30 µg/mL
[12]
  IC50, titer in TZM.bl cells: 1 µg/mL
  IC80, titer in TZM.bl cells: 5.3 µg/mL
[13]
  IC50, titer in TZM.bl cells: > 50 µg/mL
  IC80, titer in TZM.bl cells: > 50 µg/mL
[14]
  IC50, titer in TZM.bl cells: > 50 µg/mL
  IC80, titer in TZM.bl cells: > 50 µg/mL
[15]
  IC50, titer in TZM.bl cells: 5.34 µg/mL
  IC80, titer in TZM.bl cells: 27.6 µg/mL
[16]
  neutralization IC50: 0.17 µg/mL
  neutralization IC80: 0.81 µg/mL
[17]
  neutralization IC50: > 50 µg/mL
  neutralization IC80: > 50 µg/mL
[18]
  IC50, titer in TZM.bl cells: 0.64 µg/mL
  IC80, titer in TZM.bl cells: 3.09 µg/mL
[19]
  IC50, titer in TZM.bl cells: 0.48 µg/mL
  IC80, titer in TZM.bl cells: 3.54 µg/mL
[20]
  neutralization IC50: 0.29 µg/mL
  neutralization IC80: 1.73 µg/mL
[21]
  neutralization IC50: > 50 µg/mL
  neutralization IC80: > 50 µg/mL
[22]
  neutralization IC50: 4.42 µg/mL
  neutralization IC80: 19.1 µg/mL
[23]
  neutralization IC50: 0.32 µg/mL
  neutralization IC80: 1.85 µg/mL
[24]
  neutralization IC50: 15.3 µg/mL
  neutralization IC80: > 50 µg/mL
[25]
  neutralization IC50: 0.52 µg/mL
  neutralization IC80: 1.87 µg/mL
[26]
  neutralization IC50: 2.55 µg/mL
  neutralization IC80: 2.55 µg/mL
[27]
  neutralization IC50: 2.71 µg/mL
  neutralization IC80: 17.1 µg/mL
[28]
  IC50, titer in TZM.bl cells: 4.83 µg/mL
  IC80, titer in TZM.bl cells: 4.83 µg/mL
[29]
  neutralization IC50: 0.47 µg/mL
  neutralization IC80: 3.06 µg/mL
[30]
  IC50, titer in TZM.bl cells: > 50 µg/mL
  IC80, titer in TZM.bl cells: > 50 µg/mL
[31]
  IC50, titer in TZM.bl cells: > 50 µg/mL
  IC80, titer in TZM.bl cells: > 50 µg/mL
[32]
  neutralization IC50: 0.19 µg/mL
  neutralization IC80: 1.17 µg/mL
[33]
  neutralization IC50: > 50 µg/mL
  neutralization IC80: > 50 µg/mL
[34]
  neutralization IC50: 23.4 µg/mL
  neutralization IC80: > 50 µg/mL
[35]
  neutralization IC50: 7.39 µg/mL
  neutralization IC80: 43.5 µg/mL
[36]
  neutralization IC50: > 30 µg/mL
  neutralization IC80: > 30 µg/mL

## NIH 45-46 (antibody)
[1]
  neutralization IC50: 0.05 µg/mL
  neutralization IC80: 0.31 µg/mL
[2]
  neutralization IC50: 0.01 µg/mL
  neutralization IC80: 0.04 µg/mL
[3]
  neutralization IC50: 0.12 µg/mL
  neutralization IC80: 0.59 µg/mL
[4]
  neutralization IC50: 0.02 µg/mL
  neutralization IC80: 0.07 µg/mL
[5]
  IC50, titer in TZM.bl cells: > 50 µg/mL
  IC80, titer in TZM.bl cells: > 50 µg/mL
[6]
  IC50, titer in TZM.bl cells: 0.3 µg/mL
  IC80, titer in TZM.bl cells: 1.49 µg/mL
[7]
  neutralization IC50: 0.04 µg/mL
  neutralization IC80: 0.17 µg/mL
[8]
  neutralization IC50: 0.05 µg/mL
  neutralization IC80: 0.1 µg/mL
[9]
  IC50, titer in TZM.bl cells: 1.66 µg/mL
  IC80, titer in TZM.bl cells: 6.57 µg/mL
[10]
  IC50, titer in TZM.bl cells: 0.01 µg/mL
  IC80, titer in TZM.bl cells: 0.03 µg/mL
[11]
  neutralization IC50: 0.11 µg/mL
  neutralization IC80: 0.11 µg/mL
[12]
  IC50, titer in TZM.bl cells: > 50 µg/mL
  IC80, titer in TZM.bl cells: > 50 µg/mL
[13]
  IC50, titer in TZM.bl cells: 0.01 µg/mL
  IC80, titer in TZM.bl cells: 0.04 µg/mL
[14]
  IC50, titer in TZM.bl cells: > 30 µg/mL
  IC80, titer in TZM.bl cells: > 30 µg/mL
[15]
  IC50, titer in TZM.bl cells: 0.03 µg/mL
  IC80, titer in TZM.bl cells: 0.13 µg/mL
[16]
  neutralization IC50: 0.18 µg/mL
  neutralization IC80: 0.65 µg/mL
[17]
  neutralization IC50: 0.1 µg/mL
  neutralization IC80: 0.39 µg/mL
[18]
  IC50, titer in TZM.bl cells: 0.26 µg/mL
  IC80, titer in TZM.bl cells: 1.16 µg/mL
[19]
  IC50, titer in TZM.bl cells: 12.8 µg/mL
  IC80, titer in TZM.bl cells: > 50 µg/mL
[20]
  neutralization IC50: 0.07 µg/mL
  neutralization IC80: 0.37 µg/mL
[21]
  neutralization IC50: 0.01 µg/mL
  neutralization IC80: 0.04 µg/mL
[22]
  neutralization IC50: 0.04 µg/mL
  neutralization IC80: 0.28 µg/mL
[23]
  neutralization IC50: 0.01 µg/mL
  neutralization IC80: 0.03 µg/mL
[24]
  neutralization IC50: 0.02 µg/mL
  neutralization IC80: 0.06 µg/mL
[25]
  neutralization IC50: 0.17 µg/mL
  neutralization IC80: 0.47 µg/mL
[26]
  neutralization IC50: 0.14 µg/mL
  neutralization IC80: 0.6 µg/mL
[27]
  neutralization IC50: 0.55 µg/mL
  neutralization IC80: 1.56 µg/mL
[28]
  IC50, titer in TZM.bl cells: 1.68 µg/mL
  IC80, titer in TZM.bl cells: 1.68 µg/mL
[29]
  neutralization IC50: 0.14 µg/mL
  neutralization IC80: 0.38 µg/mL
[30]
  IC50, titer in TZM.bl cells: > 30 µg/mL
  IC80, titer in TZM.bl cells: > 30 µg/mL
[31]
  IC50, titer in TZM.bl cells: > 30 µg/mL
  IC80, titer in TZM.bl cells: > 30 µg/mL
[32]
  neutralization IC50: 0.01 µg/mL
  neutralization IC80: 0.05 µg/mL
[33]
  neutralization IC50: 0.36 µg/mL
  neutralization IC80: 3.11 µg/mL
[34]
  neutralization IC50: 0.14 µg/mL
  neutralization IC80: 0.64 µg/mL
[35]
  neutralization IC50: 1.86 µg/mL
  neutralization IC80: 16.5 µg/mL
[36]
  neutralization IC50: 0.65 µg/mL
  neutralization IC80: 0.65 µg/mL
